Measurements from paper PMC10357428.

System: CC(=O)Oc1c[nH]c2ccccc12
Experiment: purified protein

CanB (Mtb β-carbonic anhydrase, Rv3588c) (Mycobacterium tuberculosis H37Rv)
Km: 4.5 ± 0.6 mM
